Consider 28 molecules from article PMC8548206, “Single-domain antibody screening by isPLA-seq” (Life Science Alliance, 2021).

The labels stand for the following.
B1: purified anti-SQSTM1 sdAb clone #2 (VHH)
VHH: QVQLVESGGGSVQAGGSLRLSCTASGGSEYSYSTFSLGWFRQAPGQEREAVAAIASMGGLTYYADSVKGRFTISRDNAKNTVTLQMNNLKPEDTAIYYCAARAGVCGVVGSFSMYTIGNWVYWGQGTQVTVSS
B2: purified anti-SQSTM1 sdAb clone #1, C-terminal ETA-fused and Flag-tagged (VHH)
VHH: QVQLVESGGGSVQAGGSLRLSCTASGGSEYSYSTFSLGWFRQAPGQEREAVAAIASMGGLTYYADSVKGRFTISRDNAKNTVTLQMNNLKPEDTAIYYCAAEGLVYWTTKKSFGGCLLHDWSWGQGTQVTVSS
notes: also called anti-SQSTM1 sdAb #1; ETA-tagged anti-SQSTM1 sdAb
B3: anti-SQSTM1 sdAb #16 (Flag-tagged, sdAb library) (VHH)
VHH: QVQLVESGGGSVQAGGSLRLSCTASGGSEYSYSTFSLGWFRQAPGQEREAVAAIASMGGLTYYADSVKGRFTISRDNAKNTVTLQMNNLKPEDTAIYYCAANMAIRVRWVAMFTCGPIGGVGWGQGTQVTVSS
notes: 21-aa CDR3 in place of the CDR3 of cAbBCII10; source: HEK293T, transfected (sdAb library in pcDNA3.1), in fixed cells; not shown: 3x Flag, C-terminal, kept
B4: anti-SQSTM1 sdAb #7 (Flag-tagged, sdAb library) (VHH)
VHH: QVQLVESGGGSVQAGGSLRLSCTASGGSEYSYSTFSLGWFRQAPGQEREAVAAIASMGGLTYYADSVKGRFTISRDNAKNTVTLQMNNLKPEDTAIYYCAAAYIAKRPCCDCREVQWGSRTCWGQGTQVTVSS
notes: as for B3
B5: anti-SQSTM1 sdAb #6 (Flag-tagged, sdAb library) (VHH)
VHH: QVQLVESGGGSVQAGGSLRLSCTASGGSEYSYSTFSLGWFRQAPGQEREAVAAIASMGGLTYYADSVKGRFTISRDNAKNTVTLQMNNLKPEDTAIYYCAALLVIDSSVIARLDGRGRSDRLWGQGTQVTVSS
notes: as for B3
B6: anti-SQSTM1 sdAb #20 (Flag-tagged, sdAb library) (VHH)
VHH: QVQLVESGGGSVQAGGSLRLSCTASGGSEYSYSTFSLGWFRQAPGQEREAVAAIASMGGLTYYADSVKGRFTISRDNAKNTVTLQMNNLKPEDTAIYYCAAPGHGRPWRAATFPVDEGGGSAWGQGTQVTVSS
notes: as for B3
B7: anti-SQSTM1 sdAb #4 (Flag-tagged, sdAb library) (VHH)
VHH: QVQLVESGGGSVQAGGSLRLSCTASGGSEYSYSTFSLGWFRQAPGQEREAVAAIASMGGLTYYADSVKGRFTISRDNAKNTVTLQMNNLKPEDTAIYYCAAAYGNDVQSVAFKYVVGRGYQLWGQGTQVTVSS
notes: as for B3
B8: anti-SQSTM1 sdAb #18 (Flag-tagged, sdAb library) (VHH)
VHH: QVQLVESGGGSVQAGGSLRLSCTASGGSEYSYSTFSLGWFRQAPGQEREAVAAIASMGGLTYYADSVKGRFTISRDNAKNTVTLQMNNLKPEDTAIYYCAAGIGYAGDCRAHTIATRRFSVGWGQGTQVTVSS
notes: as for B3
B9: anti-SQSTM1 sdAb #2 (Flag-tagged, sdAb library) (VHH)
VHH: QVQLVESGGGSVQAGGSLRLSCTASGGSEYSYSTFSLGWFRQAPGQEREAVAAIASMGGLTYYADSVKGRFTISRDNAKNTVTLQMNNLKPEDTAIYYCAARAGVCGVVGSFSMYTIGNWVYWGQGTQVTVSS
notes: 21-aa CDR3 in place of the CDR3 of cAbBCII10; also called clone #2; source: HEK293T, transfected (sdAb library in pcDNA3.1), in fixed cells; not shown: 3x Flag, C-terminal, kept
B10: anti-SQSTM1 sdAb #11 (Flag-tagged, sdAb library) (VHH)
VHH: QVQLVESGGGSVQAGGSLRLSCTASGGSEYSYSTFSLGWFRQAPGQEREAVAAIASMGGLTYYADSVKGRFTISRDNAKNTVTLQMNNLKPEDTAIYYCAAARAHFASLCDCQGNRITLLCDWGQGTQVTVSS
notes: as for B3
B11: anti-SQSTM1 sdAb #9 (Flag-tagged, sdAb library) (VHH)
VHH: QVQLVESGGGSVQAGGSLRLSCTASGGSEYSYSTFSLGWFRQAPGQEREAVAAIASMGGLTYYADSVKGRFTISRDNAKNTVTLQMNNLKPEDTAIYYCAADRGCHSTLGSRISFFKGCIIGWGQGTQVTVSS
notes: as for B3
B12: anti-SQSTM1 sdAb #10 (Flag-tagged, sdAb library) (VHH)
VHH: QVQLVESGGGSVQAGGSLRLSCTASGGSEYSYSTFSLGWFRQAPGQEREAVAAIASMGGLTYYADSVKGRFTISRDNAKNTVTLQMNNLKPEDTAIYYCAAVLHVLSWDRCEYDPAHDLRTAWGQGTQVTVSS
notes: as for B3
B13: anti-SQSTM1 sdAb #17 (Flag-tagged, sdAb library) (VHH)
VHH: QVQLVESGGGSVQAGGSLRLSCTASGGSEYSYSTFSLGWFRQAPGQEREAVAAIASMGGLTYYADSVKGRFTISRDNAKNTVTLQMNNLKPEDTAIYYCAAAVESCDGFRTGRTVPYREVTYWGQGTQVTVSS
notes: as for B3
B14: anti-SQSTM1 sdAb #14 (Flag-tagged, sdAb library) (VHH)
VHH: QVQLVESGGGSVQAGGSLRLSCTASGGSEYSYSTFSLGWFRQAPGQEREAVAAIASMGGLTYYADSVKGRFTISRDNAKNTVTLQMNNLKPEDTAIYYCAAGGNTVKVSNIFEVSSSVRVRLWGQGTQVTVSS
notes: as for B3
B15: anti-SQSTM1 sdAb #19 (Flag-tagged, sdAb library) (VHH)
VHH: QVQLVESGGGSVQAGGSLRLSCTASGGSEYSYSTFSLGWFRQAPGQEREAVAAIASMGGLTYYADSVKGRFTISRDNAKNTVTLQMNNLKPEDTAIYYCAARQAPFGSRCSISSSPKGRYPSWGQGTQVTVSS
notes: as for B3
B16: anti-SQSTM1 sdAb #8 (Flag-tagged, sdAb library) (VHH)
VHH: QVQLVESGGGSVQAGGSLRLSCTASGGSEYSYSTFSLGWFRQAPGQEREAVAAIASMGGLTYYADSVKGRFTISRDNAKNTVTLQMNNLKPEDTAIYYCAAARVFMPCTPSHIIGAMCTLACWGQGTQVTVSS
notes: as for B3
B17: anti-SQSTM1 sdAb #23 (Flag-tagged, sdAb library) (VHH)
VHH: QVQLVESGGGSVQAGGSLRLSCTASGGSEYSYSTFSLGWFRQAPGQEREAVAAIASMGGLTYYADSVKGRFTISRDNAKNTVTLQMNNLKPEDTAIYYCAARRGFVRHTKIKLLDYALTEVRWGQGTQVTVSS
notes: as for B3
B18: anti-SQSTM1 sdAb #3 (Flag-tagged, sdAb library) (VHH)
VHH: QVQLVESGGGSVQAGGSLRLSCTASGGSEYSYSTFSLGWFRQAPGQEREAVAAIASMGGLTYYADSVKGRFTISRDNAKNTVTLQMNNLKPEDTAIYYCAARVRTSPRSAVADGSAYRSESAWGQGTQVTVSS
notes: as for B3
B19: anti-SQSTM1 sdAb #5 (Flag-tagged, sdAb library) (VHH)
VHH: QVQLVESGGGSVQAGGSLRLSCTASGGSEYSYSTFSLGWFRQAPGQEREAVAAIASMGGLTYYADSVKGRFTISRDNAKNTVTLQMNNLKPEDTAIYYCAAYDRVGGGHVLIACYSDDLCMGWGQGTQVTVSS
notes: as for B3
B20: anti-SQSTM1 sdAb #15 (Flag-tagged, sdAb library) (VHH)
VHH: QVQLVESGGGSVQAGGSLRLSCTASGGSEYSYSTFSLGWFRQAPGQEREAVAAIASMGGLTYYADSVKGRFTISRDNAKNTVTLQMNNLKPEDTAIYYCAALRWSWFPSGSTANLSLGIGCTWGQGTQVTVSS
notes: as for B3
B21: anti-SQSTM1 sdAb #25 (Flag-tagged, sdAb library) (VHH)
VHH: QVQLVESGGGSVQAGGSLRLSCTASGGSEYSYSTFSLGWFRQAPGQEREAVAAIASMGGLTYYADSVKGRFTISRDNAKNTVTLQMNNLKPEDTAIYYCAAPGDGQEVIFAFVQRSTRAWPVWGQGTQVTVSS
notes: as for B3
B22: anti-SQSTM1 sdAb #22 (Flag-tagged, sdAb library) (VHH)
VHH: QVQLVESGGGSVQAGGSLRLSCTASGGSEYSYSTFSLGWFRQAPGQEREAVAAIASMGGLTYYADSVKGRFTISRDNAKNTVTLQMNNLKPEDTAIYYCAAACELDAVRLWPDFVRPAVFSIWGQGTQVTVSS
notes: as for B3
B23: anti-SQSTM1 sdAb #24 (Flag-tagged, sdAb library) (VHH)
VHH: QVQLVESGGGSVQAGGSLRLSCTASGGSEYSYSTFSLGWFRQAPGQEREAVAAIASMGGLTYYADSVKGRFTISRDNAKNTVTLQMNNLKPEDTAIYYCAAVRTPVILRCFQSGIFYLVGEVWGQGTQVTVSS
notes: as for B3
B24: anti-SQSTM1 sdAb #26 (Flag-tagged, sdAb library) (VHH)
VHH: QVQLVESGGGSVQAGGSLRLSCTASGGSEYSYSTFSLGWFRQAPGQEREAVAAIASMGGLTYYADSVKGRFTISRDNAKNTVTLQMNNLKPEDTAIYYCAAFPSRLKCTRGCGCRTFNFPALWGQGTQVTVSS
notes: as for B3
B25: anti-SQSTM1 sdAb #13 (Flag-tagged, sdAb library) (VHH)
VHH: QVQLVESGGGSVQAGGSLRLSCTASGGSEYSYSTFSLGWFRQAPGQEREAVAAIASMGGLTYYADSVKGRFTISRDNAKNTVTLQMNNLKPEDTAIYYCAAREPFARYLRKESYPLFRMYSFWGQGTQVTVSS
notes: as for B3
B26: anti-SQSTM1 sdAb #12 (Flag-tagged, sdAb library) (VHH)
VHH: QVQLVESGGGSVQAGGSLRLSCTASGGSEYSYSTFSLGWFRQAPGQEREAVAAIASMGGLTYYADSVKGRFTISRDNAKNTVTLQMNNLKPEDTAIYYCAADQVRDHSWCNLFRTLRVCVLIWGQGTQVTVSS
notes: as for B3
B27: anti-SQSTM1 sdAb #21 (Flag-tagged, sdAb library) (VHH)
VHH: QVQLVESGGGSVQAGGSLRLSCTASGGSEYSYSTFSLGWFRQAPGQEREAVAAIASMGGLTYYADSVKGRFTISRDNAKNTVTLQMNNLKPEDTAIYYCAADLWAPLMVCSGGLTQMLSNSDWGQGTQVTVSS
notes: as for B3
B28: anti-SQSTM1 sdAb #27 (Flag-tagged, sdAb library) (VHH)
VHH: QVQLVESGGGSVQAGGSLRLSCTASGGSEYSYSTFSLGWFRQAPGQEREAVAAIASMGGLTYYADSVKGRFTISRDNAKNTVTLQMNNLKPEDTAIYYCAAIIAELCSGLPCTSFLRTPCPVWGQGTQVTVSS
notes: as for B3

The target of one test is T1, Sqstm1 (endogenous, LLC1 cells) (Mus musculus (Mouse)., UniProt Q64337).
T1 construct: mouse Sqstm1, endogenous in Lewis lung carcinoma (LLC1) cells; also called denatured Sqstm1; source: endogenous, LLC1 cells (lysate for Western blot; fixed cells for staining)
Put plainly: far-Western, overlay or dot blot. The settings on record: one partner purified.
Regarding B1, the binding result was “binds”.

In another test the target is GST-SQSTM1, 221–440 aa (Homo sapiens (Human)., UniProt Q13501). Put plainly: ITC. The settings on record: both partners purified.
B2: the Kd (as a rule, the concentration at which binding is half-saturated) is 8.8 ± 1.39 µM.

The target in a further test is T2, HA-tagged SQSTM1 (Homo sapiens (Human)., UniProt Q13501).
T2 construct: autophagy receptor SQSTM1, full length; the printed limits 1-440 fit the human protein; also called HA-tagged bait; full length; source: HEK293T, transfected, in fixed cells (screen)
Put plainly: proximity ligation; pooled screen (isPLA-seq): Flag-tagged sdAb library co-transfected with HA-tagged SQSTM1 into HEK293T cells, fixed after 48 h, isPLA with anti-HA and anti-Flag antibodies, positive cells sorted by FACS, three rounds, CDR3 sequenced. The settings on record: partners not purified.
Take B3: the binding result is on record as “binds”.
On the same count and under the same terms, under B4 stands “binds”; under B5, “binds”; under B6, “binds”.
Still for that read-out and setting: under B7 stands “binds”; under B8, “binds”.
Same read-out and setting: to B9 belongs “binds”; to B10, “binds”.
Consider B11, for which the binding result is reported as “binds”.
The same measure, in the same setting: to B12 belongs “binds”; to B13, “binds”.
Take B14: the binding result is listed as “binds”.
For B15, the binding result is recorded as “binds”.
For B16, the binding result is given as “binds”.
Still for that read-out and setting: under B17 stands “binds”; under B18, “binds”.
On the same count and under the same terms, to B19 belongs “binds”.
On the same count and under the same terms, to B20 belongs “binds”.
Take B21: the binding result was “binds”.
Turning to B22, the binding result was “binds”.
As to B23, the binding result is reported as “binds”.
In the case of B24, the binding result is “binds”.
On to B25, for which the binding result is “binds”.
With B26, the binding result is “binds”.
Regarding B27, the binding result is listed as “binds”.
Still for that read-out and setting: to B28 belongs “binds”.
